≈ marks a conversion by molar mass, not a printed value. Where two headings read alike, the source gives them in different places. Peptide text beside a SMILES is read from it. * marks the point of attachment. Paclitaxel(2'-O-succinyl) = CC(=O)O[C@H]1C(=O)[C@@]2(C)[C@H]([C@H](OC(=O)c3ccccc3)[C@]3(O)C[C@H](OC(=O)[C@H](OC(=O)CCC(=O)*)[C@@H](NC(=O)c4ccccc4)c4ccccc4)C(C)=C1C3(C)C)[C@]1(OC(C)=O)CO[C@@H]1C[C@@H]2O
Key:
[1] = Metabolism in liver microsomes; format: in vitro ADME; conditions: for k / microsomal CLint at 1 µM / half-life at 1 µM: NADPH, 37°C; for microsomal CLint at 1 µM: read-out: CLint(mic); for half-life at 1 µM: read-out: t½
Description: 1.85 mg of DOC-AI (or 1.81 mg of PTX-AI) was precisely weighed, 1 mL of DMSO was added, dissolved and mixed well to obtain 1 mM stock solution. 1 mM stock solution was diluted with methanol to 100 µM working solution for sample incubation. 12.5 µL of 20 mg/mL liver microsomes (mouse-derived, Shanghai Quanyang Trading Co., Ltd., batch number: MIC255038; rat-derived, Shanghai Quanyang Trading Co., Ltd., batch number: MIC254034; dog-derived, Shanghai Quanyang Trading Co., Ltd., batch number: MIC257015; monkey-derived, Ruide Liver Disease Research (Shanghai) Co., Ltd., batch number: SYXS; human-derived, Shanghai Quanyang Trading Co., Ltd., batch number: 1210097), 432.5 µL of 100 mM PBS, 25 µL of 20 mM NADPH, and 25 µL of 100 mM MgCl2 were added into a 96-well plate, and after mixing, pre-incubated at 37°C for 5 min. 5 µL of 100 µM working solution was added to the 96-well plate to initiate the reaction. At the set time points, 50 µL of the reaction sample was taken and placed in an EP tube containing 100 µL of ice-cold acetonitrile, vortexed for inactivation, and stored at -90°C for testing. […] Table 4 Results of detection of DOC-AI metabolism in liver microsomes

[2] = Solubility in water (HPLC, saturated solution); format: physicochemical; conditions: for solubility thermodynamic at 15 min: in water (ultrapure), HPLC; for Fold Increase: solubility in water of the conjugate versus the free drug (DOC or PTX)
Description: 25, 50, 100, 200, 300, and 400 µL of the above stock solutions were precisely measured, added into 1 mL volumetric flasks, and diluted to the mark with methanol to obtain a series of standard solutions with concentrations of 25, 50, 100, 200, 300, and 400 µg/mL, respectively. The peak areas of the series of standard solutions were detected by HPLC (mobile phase: 0.065% TFA in water + 0.05% TFA; chromatographic column: YMC-Triart C18; wavelength: 220 nm) to construct a concentration-peak area standard curve, where the abscissa represents concentration and the ordinate represents peak area.
The peak area of the sample was detected by HPLC, and its saturation in water was calculated through the concentration-peak area standard curve. Table 6 Results of detection of solubility of polypeptide conjugates in water

[3] = tested on: LoVo (human colon cancer cells); experiment: Tumor cell proliferation inhibition (CCK8); format: cell-based; conditions: IC50 of free drug / IC50 of polypeptide conjugate
Excerpt: (§1) Human highly metastatic hepatocellular carcinoma cells HCCLM3, human highly metastatic gastric cancer cells MKN45, human gastric cancer cells BGC-823 and MGC-803, non-small cell lung cancer cells A549, human pancreatic cancer cells ASPC-1, human colon cancer cells LoVo, human ovarian cancer cells A2780, human cervical cancer cells SiHa, human malignant melanoma cells SK-mel-2 and M14, human osteosarcoma cells Saos-2, human bladder transitional cell carcinoma cells T24, human brain glioblastoma cells U87-MG, human lymphoma cells Raji, and human epidermal cancer cells A431 were selected for the experiment. Among them, HCCLM3 cells, MKN45 cells, BGC-823 cells, MGC-803 cells, A431 cells and A549 cells were provided by Nanjing Anji Biotechnology Co., Ltd., and the other cells were provided by Nanjing Ouji Pharmaceutical Technology Service Co., Ltd.
(§2) The aforementioned tumor cells were preserved in a medium containing 10% fetal bovine serum and 1% penicillin-streptomycin, and incubated at 37°C with 5% CO2 and 95% humidity. The aforementioned tumor cells were cultured in T75 flasks with an experimental cell density of 80%. The aforementioned tumor cell lines were mycoplasma-negative.
(§3) Tumor cells in the logarithmic growth phase were taken for the experiment. The cells were digested, counted, and prepared into a cell suspension with a concentration of 1×10^5 cells/mL, which was then inoculated into a 96-well plate (100 µL per well). The 96-well plate was incubated in a 37°C, 5% CO2 incubator for 24 hours. […] After incubating the plate in the incubator for 72 h, the cell morphology of each group was observed under a microscope. Then, 10 µL of CCK8 solution (Nanjing Enjing Biotechnology Co., Ltd.) was added to each well, and the plate was further incubated in the cell incubator for 4 h. After incubation, the absorbance was measured at 450 nm, and the tumor cell proliferation inhibition rate was calculated. The efficiency ratio was the ratio of the IC50 value of the free drug to that of the polypeptide conjugate. Table 1 Tumor cell proliferation inhibition rates of polypeptide conjugates

[4] = tested on: HCCLM3 (human highly metastatic hepatocellular carcinoma cells); experiment: Tumor cell proliferation inhibition (CCK8); format: cell-based; conditions: IC50 of free drug / IC50 of polypeptide conjugate
Excerpt: as §1, §2, §3

[5] = tested on: ASPC-1 (human pancreatic cancer cells); experiment: Tumor cell proliferation inhibition (CCK8); format: cell-based; conditions: IC50 of free drug / IC50 of polypeptide conjugate
Excerpt: as §1, §2, §3

[6] = tested on: U87-MG (human brain glioblastoma cells); experiment: Tumor cell proliferation inhibition (CCK8); format: cell-based; conditions: IC50 of free drug / IC50 of polypeptide conjugate
Excerpt: as §1, §2, §3

[7] = tested on: A549 (non-small cell lung cancer cells); experiment: Tumor cell proliferation inhibition (CCK8); format: cell-based; conditions: IC50 of free drug / IC50 of polypeptide conjugate
Excerpt: as §1, §2, §3

[8] = tested on: SK-mel-2 (human malignant melanoma cells); experiment: Tumor cell proliferation inhibition (CCK8); format: cell-based; conditions: IC50 of free drug / IC50 of polypeptide conjugate
Excerpt: as §1, §2, §3

[9] = tested on: M14 (human malignant melanoma cells); experiment: Tumor cell proliferation inhibition (CCK8); format: cell-based; conditions: IC50 of free drug / IC50 of polypeptide conjugate
Excerpt: as §1, §2, §3

[10] = tested on: SiHa (human cervical cancer cells); experiment: Tumor cell proliferation inhibition (CCK8); format: cell-based; conditions: IC50 of free drug / IC50 of polypeptide conjugate
Excerpt: as §1, §2, §3

[11] = tested on: Saos-2 (human osteosarcoma cells); experiment: Tumor cell proliferation inhibition (CCK8); format: cell-based; conditions: IC50 of free drug / IC50 of polypeptide conjugate
Excerpt: as §1, §2, §3

[12] = tested on: A2780 (human ovarian cancer cells); experiment: Tumor cell proliferation inhibition (CCK8); format: cell-based; conditions: IC50 of free drug / IC50 of polypeptide conjugate
Excerpt: as §1, §2, §3

[13] = tested on: T24 (human bladder transitional cell carcinoma cells); experiment: Tumor cell proliferation inhibition (CCK8); format: cell-based; conditions: IC50 of free drug / IC50 of polypeptide conjugate
Excerpt: as §1, §2, §3

[14] = tested on: Raji (human lymphoma cells); experiment: Tumor cell proliferation inhibition (CCK8); format: cell-based; conditions: IC50 of free drug / IC50 of polypeptide conjugate
Excerpt: as §1, §2, §3

[15] = Human liver microsomes 0.5 mg/mL
[16] = Monkey liver microsomes 0.5 mg/mL
[17] = Mouse liver microsomes 0.5 mg/mL

| SMILES | CLint(liver) ([1]; Dog liver microsomes 0.5 mg/mL) | Clearance Rate Level ([1]; Dog liver microsomes 0.5 mg/mL) | Hepatic Extraction Ratio (EH) ([1]; Dog liver microsomes 0.5 mg/mL) | k ([1]; Dog liver microsomes 0.5 mg/mL) | microsomal CLint at 1 µM ([1]; Dog liver microsomes 0.5 mg/mL) | half-life at 1 µM ([1]; Dog liver microsomes 0.5 mg/mL) | CLint(liver) [1, 15] | Clearance Rate Level [1, 15] | Hepatic Extraction Ratio (EH) [1, 15] | k [1, 15] | microsomal CLint at 1 µM [1, 15] | half-life at 1 µM [1, 15] | CLint(liver) [1, 16] | Clearance Rate Level [1, 16] | Hepatic Extraction Ratio (EH) [1, 16] | k [1, 16] | microsomal CLint at 1 µM [1, 16] | half-life at 1 µM [1, 16] | CLint(liver) [1, 17] | Clearance Rate Level [1, 17] | also measured |
| --- | --- | --- | --- | --- | --- | --- | --- | --- | --- | --- | --- | --- | --- | --- | --- | --- | --- | --- | --- | --- | --- |
| CC(=O)O[C@@]12CO[C@@H]1C[C@H](O)[C@@]1(C)C(=O)[C@H](O)C3=C(C)[C@@H](OC(=O)[C@H](OC(=O)CCC(=O)N[C@@H](CCCNC(=N)N)C(=O)N[C@@H](CO)C(=O)N4CCC[C@H]4C(=O)N[C@@H](Cc4ccc(O)cc4)C(=O)N[C@@H](C)C(=O)N[C@@H](CC(N)=O)C(=O)N[C@@H](CO)C(=O)O)[C@@H](NC(=O)OC(C)(C)C)c4ccccc4)C[C@@](O)([C@@H](OC(=O)c4ccccc4)[C@H]21)C3(C)C [DOC-AI] | 66.2 mL/min/kg | Medium | 0.682 | 0.0230 | 45.9 µL/min/mg | 30.2 min | 23.4 mL/min/kg | Medium | 0.531 | 0.0130 | 26 µL/min/mg | 53.3 min | 140 mL/min/kg | High | 0.763 | 0.0520 | 104 µL/min/mg | 13.3 min | 324 mL/min/kg | High | Hepatic Extraction Ratio (EH) [1, 17]: 0.783; k [1, 17]: 0.0410; microsomal CLint at 1 µM [1, 17]: 81.9 µL/min/mg; half-life at 1 µM [1, 17]: 16.9 min; CLint(liver) ([1]; Rat liver microsomes 0.5 mg/mL): 108 mL/min/kg; Clearance Rate Level ([1]; Rat liver microsomes 0.5 mg/mL): Medium; Hepatic Extraction Ratio (EH) ([1]; Rat liver microsomes 0.5 mg/mL): 0.662; k ([1]; Rat liver microsomes 0.5 mg/mL): 0.0301; microsomal CLint at 1 µM ([1]; Rat liver microsomes 0.5 mg/mL): 60.1 µL/min/mg; half-life at 1 µM ([1]; Rat liver microsomes 0.5 mg/mL): 23.1 min; solubility thermodynamic at 15 min [2]: 4430 µg/mL (≈ 2630 µM); Fold Increase [2]: 1.62×10^5; Efficiency Ratios [3]: 1.18; Efficiency Ratios [4]: 1.63; Efficiency Ratios [5]: 2.31; Efficiency Ratios [6]: 2.05; Efficiency Ratios [7]: 1.39; Efficiency Ratios [8]: 1.00; Efficiency Ratios [9]: 1.21; Efficiency Ratios [10]: 3.90 |
| CC(=O)O[C@H]1C(=O)[C@@]2(C)[C@H]([C@H](OC(=O)c3ccccc3)[C@]3(O)C[C@H](OC(=O)[C@H](OC(=O)CCC(=O)N[C@@H](CCCNC(=N)N)C(=O)N[C@@H](CO)C(=O)N4CCC[C@H]4C(=O)N[C@@H](Cc4ccc(O)cc4)C(=O)N[C@@H](C)C(=O)N[C@@H](CC(N)=O)C(=O)N[C@@H](CO)C(=O)O)[C@@H](NC(=O)c4ccccc4)c4ccccc4)C(C)=C1C3(C)C)[C@]1(OC(C)=O)CO[C@@H]1C[C@@H]2O [PTX-AI] ({Paclitaxel(2'-O-succinyl)}-RSPYANS-OH) | 81.4 mL/min/kg | High | 0.725 | 0.0283 | 56.6 µL/min/mg | 24.5 min | 26.6 mL/min/kg | Medium | 0.562 | 0.0148 | 29.5 µL/min/mg | 46.9 min | 148 mL/min/kg | High | 0.772 | 0.0548 | 110 µL/min/mg | 12.7 min | 405 mL/min/kg | High | Hepatic Extraction Ratio (EH) [1, 17]: 0.818; k [1, 17]: 0.0511; microsomal CLint at 1 µM [1, 17]: 102 µL/min/mg; half-life at 1 µM [1, 17]: 13.6 min; CLint(liver) ([1]; Rat liver microsomes 0.5 mg/mL): 122 mL/min/kg; Clearance Rate Level ([1]; Rat liver microsomes 0.5 mg/mL): Medium; Hepatic Extraction Ratio (EH) ([1]; Rat liver microsomes 0.5 mg/mL): 0.689; k ([1]; Rat liver microsomes 0.5 mg/mL): 0.0339; microsomal CLint at 1 µM ([1]; Rat liver microsomes 0.5 mg/mL): 67.8 µL/min/mg; half-life at 1 µM ([1]; Rat liver microsomes 0.5 mg/mL): 20.4 min; solubility thermodynamic at 15 min [2]: 5.56 µg/mL (≈ 3.21 µM); Fold Increase [2]: 46.33; Efficiency Ratios [4]: 3.70; Efficiency Ratios [11]: 1.47; Efficiency Ratios [12]: 1.11; Efficiency Ratios [7]: 2.05; Efficiency Ratios [13]: 1.78; Efficiency Ratios [14]: 1.09 |
